Molecular target: CD19 on tumor target cells (UniProt P15391)
Assay: cell-based or functional assay

Sequence of UniProt P15391 (P15391 20-556 limits assumed): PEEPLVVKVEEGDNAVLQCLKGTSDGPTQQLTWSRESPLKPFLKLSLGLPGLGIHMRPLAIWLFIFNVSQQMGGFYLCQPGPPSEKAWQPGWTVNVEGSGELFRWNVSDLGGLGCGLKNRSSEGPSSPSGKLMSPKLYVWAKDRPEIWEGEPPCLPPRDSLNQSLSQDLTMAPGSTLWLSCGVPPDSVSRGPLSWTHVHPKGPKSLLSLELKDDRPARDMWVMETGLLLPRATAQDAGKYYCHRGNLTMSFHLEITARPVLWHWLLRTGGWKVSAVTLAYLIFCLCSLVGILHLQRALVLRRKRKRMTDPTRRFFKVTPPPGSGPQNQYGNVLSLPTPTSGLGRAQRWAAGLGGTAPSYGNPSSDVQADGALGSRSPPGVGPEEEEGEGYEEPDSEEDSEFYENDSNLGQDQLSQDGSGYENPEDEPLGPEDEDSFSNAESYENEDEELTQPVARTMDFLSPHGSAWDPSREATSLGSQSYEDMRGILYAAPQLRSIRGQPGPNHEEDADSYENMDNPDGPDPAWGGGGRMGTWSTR

Substance | percentage of specific cell lysis (4-hour Chromium Release Assay) [%]
Clinical-grade CD19RCD28mζ CAR (CoOpCD19RCD28ζ), on T cells | 49
EZ CAR CD19RCD28mζ CAR (CD19-specific CAR activated through chimeric CD28/CD3-zeta, made with the EZ CAR platform), on T cells | 52

Source: patent publication US20170183407A1
